Blank lines part the entries; values can stand above or below the molecule they belong to.
How the values were obtained:
[1] = target: recombinant human IL-17 (Peprotech #200-17) (human) (UniProt Q16552); test: ELISA, coated IL-17 subtype, antibody 10 µg/ml, OD 405/492 nm
[2] = target: recombinant human IL-17 (Peprotech #200-17) (human) (UniProt Q16552); test: cell-based or functional assay
human IL-17C [3] = target: T1, human IL-17C (human, UniProt Q9P0M4 19-197, limits assumed); test: ELISA, coated IL-17 subtype, antibody 10 µg/ml, OD 405/492 nm
T1 sequence (looked up): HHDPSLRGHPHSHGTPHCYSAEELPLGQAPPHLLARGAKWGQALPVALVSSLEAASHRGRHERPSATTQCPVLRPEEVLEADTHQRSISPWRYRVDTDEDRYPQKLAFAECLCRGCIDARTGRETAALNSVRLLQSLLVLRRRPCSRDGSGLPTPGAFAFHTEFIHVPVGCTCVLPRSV

human IL-17F [4] = target: T2, human IL-17F (human, UniProt Q96PD4 31-163, limits assumed); test: as above
T2 sequence (looked up): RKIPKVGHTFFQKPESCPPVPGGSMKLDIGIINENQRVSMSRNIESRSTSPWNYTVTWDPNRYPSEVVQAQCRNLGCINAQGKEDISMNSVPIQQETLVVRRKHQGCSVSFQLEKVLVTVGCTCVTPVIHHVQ

human IL-17D = target: T3, human IL-17D (human, UniProt Q8TAD2 18-202, limits assumed); test: as above
T3 sequence (looked up): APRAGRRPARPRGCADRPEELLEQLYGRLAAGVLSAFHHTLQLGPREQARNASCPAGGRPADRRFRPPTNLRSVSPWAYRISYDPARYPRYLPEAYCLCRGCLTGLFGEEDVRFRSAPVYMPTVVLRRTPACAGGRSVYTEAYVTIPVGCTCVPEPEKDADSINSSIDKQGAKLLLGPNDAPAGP

human IL-17E = target: T4, human IL-17E (human, UniProt Q9H293 33-177, limits assumed); test: as above
T4 sequence (looked up): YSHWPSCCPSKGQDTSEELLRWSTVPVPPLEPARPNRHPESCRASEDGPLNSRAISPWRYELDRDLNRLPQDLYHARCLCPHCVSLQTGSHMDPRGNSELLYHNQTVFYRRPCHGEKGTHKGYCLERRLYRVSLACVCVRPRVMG

human IL-17B = target: T5, human IL-17B (human, UniProt Q9UHF5 21-180, limits assumed); test: as above
T5 sequence (looked up): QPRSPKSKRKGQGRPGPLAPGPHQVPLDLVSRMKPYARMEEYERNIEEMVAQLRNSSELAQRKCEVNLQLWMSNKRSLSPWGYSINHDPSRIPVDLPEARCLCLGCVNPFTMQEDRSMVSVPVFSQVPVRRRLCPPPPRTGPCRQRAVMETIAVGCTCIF

[5] = target: cynomolgus IL-17A (cynomolgus monkey); test: cell-based or functional assay
[6] = target: T6, recombinant human IL-17 (Peprotech #200-17) (human, UniProt Q16552 20-155); test: cell-based or functional assay
T6 sequence (looked up): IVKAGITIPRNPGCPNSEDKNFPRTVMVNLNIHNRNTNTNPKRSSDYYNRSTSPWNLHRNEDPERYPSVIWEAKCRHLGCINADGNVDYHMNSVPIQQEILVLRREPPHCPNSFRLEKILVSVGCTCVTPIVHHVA

[7] = target: T6, recombinant human IL-17 (Peprotech …); test: cell-based or functional assay; remark: listed apart in the source
human IL-17C [8] = target: T1, human IL-17C; test: ELISA on immobilized IL-17 variant
human IL-17F [9] = target: T2, human IL-17F; test: ELISA on immobilized IL-17 variant
cynomolgus IL-17A = target: T7, cynomolgus IL-17A (cynomolgus monkey, UniProt A0A2K5TTB0 24-155); test: cell-based or functional assay
T7 sequence: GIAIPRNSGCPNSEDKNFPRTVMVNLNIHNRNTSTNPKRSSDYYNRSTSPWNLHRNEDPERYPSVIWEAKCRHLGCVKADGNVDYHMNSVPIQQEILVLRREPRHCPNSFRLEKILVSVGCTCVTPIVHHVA

[10] = target: T6, recombinant human IL-17 (Peprotech …); test: ELISA, coated IL-17 subtype, antibody 10 µg/ml, OD 405/492 nm

Binding (IL-17A binding set as 100) (% (IL-17A binding set as 100)) [1]: 100
IL-6 Neutralization IC50 [2]: 5.5 nM
IL-8 Neutralization IC50 [2]: 5.5 nM
Binding (IL-17A binding set as 100) (% (IL-17A binding set as 100)) (human IL-17C [3]): 0
Binding (IL-17A binding set as 100) (% (IL-17A binding set as 100)) (human IL-17F [4]): 0
Binding (IL-17A binding set as 100) (% (IL-17A binding set as 100)) (human IL-17D): 0
Binding (IL-17A binding set as 100) (% (IL-17A binding set as 100)) (human IL-17E): 0
Binding (IL-17A binding set as 100) (% (IL-17A binding set as 100)) (human IL-17B): 0
Molecule: MAB 317 of R&D Systems (antibody)

Binding (IL-17A binding set as 100) (% (IL-17A binding set as 100)) [1]: 100
Binding (IL-17A binding set as 100) (% (IL-17A binding set as 100)) (human IL-17C [3]): 97
Binding (IL-17A binding set as 100) (% (IL-17A binding set as 100)) (human IL-17F [4]): 5
Binding (IL-17A binding set as 100) (% (IL-17A binding set as 100)) (human IL-17D): 6
Binding (IL-17A binding set as 100) (% (IL-17A binding set as 100)) (human IL-17E): 5
Binding (IL-17A binding set as 100) (% (IL-17A binding set as 100)) (human IL-17B): 7
Molecule: Mab 16-7178-85 of eBioscience (antibody)

Binding (IL-17A binding set as 100) (% (IL-17A binding set as 100)) [1]: 100
IL-6 Neutralization IC50 (nM) (using 100 ng/ml IL-17A) [5]: > 10 nM
IL-8 Neutralization IC50 (nM) (using 100 ng/ml IL-17A) [5]: > 10 nM
IL-6 Neutralization IC50 (nM) (using 100 ng/ml IL-17A) [2]: 5 nM
IL-8 Neutralization IC50 (nM) (using 100 ng/ml IL-17A) [2]: 4.2 nM
Binding (IL-17A binding set as 100) (% (IL-17A binding set as 100)) (human IL-17C [3]): 2
Binding (IL-17A binding set as 100) (% (IL-17A binding set as 100)) (human IL-17F [4]): 62
Binding (IL-17A binding set as 100) (% (IL-17A binding set as 100)) (human IL-17D): 0
Binding (IL-17A binding set as 100) (% (IL-17A binding set as 100)) (human IL-17E): 3
Binding (IL-17A binding set as 100) (% (IL-17A binding set as 100)) (human IL-17B): 2
Molecule: NVP-AIN-497 (WO 2006013107) (antibody)

IL-6 Neutralization IC50 (nM) (using 100 ng/ml IL-17A) [6]: 2.1 nM
IL-8 Neutralization IC50 (nM) (using 100 ng/ml IL-17A) [6]: 1.6 nM
IL-6 Neutralization IC50 [7]: 1 nM
IL-8 Neutralization IC50 [7]: 1 nM
IL-6 Neutralization IC50 (nM) (using 100 ng/ml IL-17A) (cynomolgus IL-17A): 0.7 nM
IL-8 Neutralization IC50 (nM) (using 100 ng/ml IL-17A) (cynomolgus IL-17A): 0.6 nM
Binding (IL-17A binding set as 100) (human IL-17C [3]): 0 % (IL-17A binding set as 100)
Binding (IL-17A binding set as 100) (human IL-17F [4]): 0 % (IL-17A binding set as 100)
Binding (IL-17A binding set as 100) (human IL-17D): 0 % (IL-17A binding set as 100)
Binding (IL-17A binding set as 100) [10]: 100 % (IL-17A binding set as 100)
Binding (IL-17A binding set as 100) (human IL-17E): 1 % (IL-17A binding set as 100)
Binding (IL-17A binding set as 100) (human IL-17B): 0 % (IL-17A binding set as 100)
B1: Mab 106 (antibody, V domains shown)
VH: EVQLVESGGGLVQPGGSLRLSCAASGFTFSDYTMLWVRQAPGKGLEWVAIIKSGGSYSYYPDSVKGRFTISRDNAKNSLYLQMNSLRAEDTAVYYCARDGDYGSSYGAMDYWGQGTLVTVSS
VL: DIQMTQSPSSLSASVGDRVTITCRASQDINSYLSWFQQKPGKAPKSLIYRANRLVDGVPSRFSGSGSGQDYSLTISSLQPEDFATYYCLQYDAFPPYTFGQGTKLEIK
notes: Humanized version of 3C1; Only the variable domains are tied to it; also called Mab K106
binding result (human IL-17C [8]): no binding (tested: S/N ratio lower than 7:1)
binding result (human IL-17F [9]): no binding (tested: S/N ratio lower than 7:1)
